Assays:
P-selectin [1] = biological target: T1, P-selectin (Homo sapiens, UniProt P16109 P16109:42-771); assay: competition; ligand beacon (SEQ:8); 200 nM aptamer, SHMCK buffer 1 mM MgCl2 1 mM CaCl2, 4 uM tRNA, pH 7.4, 37C; also detected in plasma; FIG. 3A lists aptamer as SEQ:12; conditions: tags: R & D Systems
Experimental: Open circles represent the fluorescence signal obtained when the 100 nM PDGF aptamer was first incubated with 100 nM PDGF ligand beacon before the protein was added. Closed circles indicate the signal generated when 100 nM PDGF ligand beacon was mixed with increasing concentration of the PDGF AB-dimer in the absence of the aptamer. TAQ DNA Polymerase An assay using constant concentrations of TAQ nucleic acid ligand and TAQ ligand beacon, and varying concentrations of TAQ DNA polymerase, was carried out as described above. Again, the fluorescence emission decreased with increasing amounts of the ligand Taq Polymerase. […] Then, L-selectin ligand beacon was added to a final concentration equivalent to that of the aptamer, incubated additional 10 minutes at 37° C. and fluorescence was measured. […] The fluorescence signal was then measured as described above. […]
P-selectin aptamer (200 nM) was mixed with increasing concentration of human P-selectin in SHMCK buffer [20 mM HEPES, 120 mM NaCl, 5 mM KCl, 1 mM MgCl_2, 1 mM CaCl_2, 4µM tRNA, (pH 7.4)] and incubated for 10 minutes at 37° C. Then, P-selectin ligand beacon was added to a final concentration of 200 nM, incubated for additional 10 minutes at 37° C. and fluorescence was measured. […]

L-selectin [2] = biological target: T2, L-selectin (Homo sapiens, UniProt P14151 P14151:39-332); assay: competition; specificity control, little or no fluorescence change; 200 nM aptamer, SHMCK, 4 uM tRNA, 37C; conditions: tags: R & D Systems
T2 sequence: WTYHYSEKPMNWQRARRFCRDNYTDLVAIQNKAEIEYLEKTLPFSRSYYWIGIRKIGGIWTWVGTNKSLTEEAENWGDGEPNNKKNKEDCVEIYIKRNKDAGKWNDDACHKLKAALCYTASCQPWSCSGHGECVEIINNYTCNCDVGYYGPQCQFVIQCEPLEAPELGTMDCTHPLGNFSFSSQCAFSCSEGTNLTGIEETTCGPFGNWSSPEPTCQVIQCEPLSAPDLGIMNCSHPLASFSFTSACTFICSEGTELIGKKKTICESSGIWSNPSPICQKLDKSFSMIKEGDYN
Experimental: (§1) Specifically, L-Selectin nucleic acid ligand (200 nM) was mixed with increasing concentrations of P-Selectin in SHMCK buffer containing 4 µM tRNA. The mixture was incubated at 37° C. for 15 minutes. Then 220 nM L-Selectin ligand beacon was added and the mixture was incubated an additional 10 minutes at the same temperature and fluorescence was measured (FIG. 8C; (•)). P-Selectin nucleic acid ligand (200 nM) was mixed with increasing concentrations of L-Selectin in SHMCK buffer containing 4 µM tRNA at 37° C. for 15 minutes. Then 220 nM P-Selectin ligand beacon was added, incubated for an additional 10 minutes at the same temperature and fluorescence was measured (FIG. 8C; (○)).

[3] = biological target: T3, PDGF-AB (platelet-derived growth factor AB dimer) (Homo sapiens, UniProt P04085;P01127 P04085:87-211,P01127:82-190); assay: competition; ligand beacon (SEQ:2) fluorescence decreases with protein; 160 nM aptamer, PBSM buffer 1 mM MgCl2, 4 uM tRNA, pH 7.4, 37C; also detected in plasma; FIG. 3A lists aptamer as SEQ:10; conditions: tags: R & D Systems; chain copies: heterodimer A+B (stated); predicted 3-way junction
T3 sequence (P01127 82-190, chain 2 of 2, other chains not shown): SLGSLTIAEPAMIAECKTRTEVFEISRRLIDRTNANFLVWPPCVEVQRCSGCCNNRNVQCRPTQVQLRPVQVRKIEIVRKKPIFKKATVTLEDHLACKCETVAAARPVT
Experimental: Example 5 Protein Detection Using Ligand Beacon Assays PDGF AB-Dimer The PDGF ligand beacon was used in an assay in which 160 nM PDGF nucleic acid ligand (SEQ ID NO:1) was mixed with an increasing concentration of PDGF AB-dimer in PBSM buffer [10.1 mM Na_2HPO_4, 1.8 mM KH_2PO_4, 137 mM NaCl, 2.7 mM KCl, 1 mM MgCl_2, 4 μM tRNA (pH 7.4)] for 10 minutes at 37° C. Then, ligand beacon (SEQ ID NO:2) was added to a final concentration of 160 nM and the mixture was incubated for 10 minutes at 37° C. A measurement of fluorescein emission at 530 nm was made for each concentration of PDGF using 488 nm monochromatic laser light for excitation in a 96 well format Vistra Fluorimager SI. The average value of fluorescence signals derived from duplicates was plotted against the corresponding log concentration of the concentration PDGF AB-dimer in nanomoles.

Taq DNA polymerase = Taq DNA polymerase (Thermus aquaticus, UniProt P19821 P19821:1-832); assay: competition; ligand beacon (SEQ:4) fluorescence decreases with protein; PBSM buffer, 4 uM tRNA, 37C; FIG. 3A lists aptamer as SEQ:9; conditions: tags: Roche Molecular Systems; predicted stem-loop
Sequence of Taq DNA polymerase (P19821 whole entry, one chain of several): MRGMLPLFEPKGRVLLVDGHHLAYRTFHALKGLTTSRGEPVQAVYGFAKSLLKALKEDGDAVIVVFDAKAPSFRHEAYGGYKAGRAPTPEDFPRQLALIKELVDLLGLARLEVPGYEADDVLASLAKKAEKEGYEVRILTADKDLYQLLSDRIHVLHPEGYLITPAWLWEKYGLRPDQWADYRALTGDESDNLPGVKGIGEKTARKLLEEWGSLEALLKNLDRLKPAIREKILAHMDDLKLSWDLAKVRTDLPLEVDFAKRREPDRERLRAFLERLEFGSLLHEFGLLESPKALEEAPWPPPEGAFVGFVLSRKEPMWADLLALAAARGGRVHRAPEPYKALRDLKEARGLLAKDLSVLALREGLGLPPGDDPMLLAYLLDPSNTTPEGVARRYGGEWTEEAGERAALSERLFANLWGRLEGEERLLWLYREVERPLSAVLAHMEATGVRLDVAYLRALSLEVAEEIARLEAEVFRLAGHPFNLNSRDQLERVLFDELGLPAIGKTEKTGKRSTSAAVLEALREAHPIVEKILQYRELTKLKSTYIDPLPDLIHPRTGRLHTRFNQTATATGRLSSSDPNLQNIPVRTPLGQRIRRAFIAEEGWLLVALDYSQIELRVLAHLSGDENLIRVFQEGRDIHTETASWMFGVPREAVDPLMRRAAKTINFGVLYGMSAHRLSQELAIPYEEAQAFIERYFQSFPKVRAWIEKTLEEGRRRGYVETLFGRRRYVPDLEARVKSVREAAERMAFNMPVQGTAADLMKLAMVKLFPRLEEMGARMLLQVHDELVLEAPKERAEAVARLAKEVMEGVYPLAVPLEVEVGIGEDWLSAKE
Experimental: (§2) Open circles represent the fluorescence signal obtained when the 100 nM PDGF aptamer was first incubated with 100 nM PDGF ligand beacon before the protein was added. Closed circles indicate the signal generated when 100 nM PDGF ligand beacon was mixed with increasing concentration of the PDGF AB-dimer in the absence of the aptamer. TAQ DNA Polymerase An assay using constant concentrations of TAQ nucleic acid ligand and TAQ ligand beacon, and varying concentrations of TAQ DNA polymerase, was carried out as described above. Again, the fluorescence emission decreased with increasing amounts of the ligand Taq Polymerase. Human L-Selectin A fixed concentration of L-selectin aptamer was mixed with increasing concentration of human L-selectin in SHMCK buffer [20 mM HEPES, 120 mM NaCl, 5 mM KCl, 1 mM MgCl_2, 1 mM CaCl_2, 4 µM tRNA, (pH 7.4)] and incubated for 10 minutes at 37° C. Then, L-selectin ligand beacon was added to a final concentration equivalent to that of the aptamer, incubated additional 10 minutes at 37° C. and fluorescence was measured. The results are depicted in FIGS. 7A and B. It can be seen that the dynamic range of the assay can be easily varied by changing the concentration of the nucleic acid ligand/ligand beacon pair. […] The fluorescence signal was then measured as described above. […]

[4] = biological target: T3, PDGF-AB (platelet-derived growth factor …); assay: competition; specificity control, no concentration-dependent signal reduction; 100 nM aptamer, PBSM, 4 uM tRNA, 37C; conditions: tags: R & D Systems; chain copies: heterodimer A+B (stated); predicted stem-loop
Experimental: In the example shown in FIG. 4C, TAQ-nucleic acid ligand (100 nM) was mixed with increasing concentrations of PDGF in PBSM buffer containing 4 μM tRNA at 37° C. for 10 minutes. Then 110 nM TAQ-ligand beacon was added, incubated for an additional 10 minutes at the same temperature and fluorescence was measured.

P-selectin [5] = biological target: T1, P-selectin; assay: competition; specificity control, little or no fluorescence change; 200 nM aptamer, SHMCK, 4 uM tRNA, 37C; conditions: tags: R & D Systems
Experimental: as §1

L-selectin [6] = biological target: T2, L-selectin; assay: competition; ligand beacon (SEQ:6); 200 or 800 nM aptamer, SHMCK buffer 1 mM MgCl2 1 mM CaCl2, 4 uM tRNA, pH 7.4, 37C; also detected in plasma; conditions: tags: R & D Systems
Experimental: as §2

T1 sequence (P16109 42-771, one chain of several): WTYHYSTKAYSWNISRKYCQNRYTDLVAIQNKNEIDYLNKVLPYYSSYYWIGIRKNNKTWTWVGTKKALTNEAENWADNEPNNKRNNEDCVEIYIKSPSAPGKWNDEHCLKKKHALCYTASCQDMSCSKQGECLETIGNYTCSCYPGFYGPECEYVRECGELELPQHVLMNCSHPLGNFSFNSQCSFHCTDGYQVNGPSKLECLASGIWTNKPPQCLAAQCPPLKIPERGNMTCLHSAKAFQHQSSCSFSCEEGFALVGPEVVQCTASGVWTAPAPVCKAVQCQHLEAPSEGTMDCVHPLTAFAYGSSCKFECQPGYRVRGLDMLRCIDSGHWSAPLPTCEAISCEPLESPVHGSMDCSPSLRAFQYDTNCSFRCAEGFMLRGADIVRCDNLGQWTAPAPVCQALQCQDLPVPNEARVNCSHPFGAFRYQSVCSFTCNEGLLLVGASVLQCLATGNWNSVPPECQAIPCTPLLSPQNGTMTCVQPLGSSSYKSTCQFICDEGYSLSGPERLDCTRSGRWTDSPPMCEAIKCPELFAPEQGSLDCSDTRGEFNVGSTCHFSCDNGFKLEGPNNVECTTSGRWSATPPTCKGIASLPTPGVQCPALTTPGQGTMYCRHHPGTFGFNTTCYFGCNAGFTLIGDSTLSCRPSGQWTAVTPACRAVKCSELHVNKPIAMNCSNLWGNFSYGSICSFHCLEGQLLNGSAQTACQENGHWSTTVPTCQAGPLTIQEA

CUCAACGAGCCAGGAACAUCGAGGUCAGCAAACGCGAG (ssRNA, 2'-F at all pyrimidines) [P-selectin aptamer]
binding result (P-selectin [1]): binds | binding result (L-selectin [2]): no binding

TGGGAGGGCGCGTTCTTCGTGGTTACTTTTAGTCCCGT (ssDNA) [PDGF aptamer]
binding result [3]: binds

B1: Taq aptamer (ssDNA)
DNA: TGGCGGAGCGATCATCTCAGAGCATTCTTAGCGTTTTGTTCTTGTGTATGA
binding result (Taq DNA polymerase): binds | binding result [4]: no binding

TAGCCAAGGTAACCAGTACAAGGTGCTAAACGTAATGGCTTCGGCTTAC (ssDNA) [L-selectin aptamer]
binding result (P-selectin [5]): no binding | binding result (L-selectin [6]): binds

Reference: patent US6531286, “Homogeneous detection of a target through nucleic acid ligand-ligand beacon interaction” (Gilead Sciences, Inc.)
